Results taken from paper PMC8352653 (Cell Reports, 2021).

Tests used:
[1] = target: recombinant stabilized trimeric prefusion ectodomain of the SARS-CoV-2 S protein (S6P_(ecto)) (SARS-CoV-2, UniProt P0DTC2)
[2] = target: S protein C-terminal S2 region expressed on HEK293T cells (SARS-CoV-2, Wuhan-Hu-1, UniProt P0DTC2); assay: flow cytometry on cells
SARS-CoV-2 RBD = SARS-CoV-2 RBD (SARS-CoV-2, Wuhan-Hu-1 (assumed), UniProt P0DTC2); assay: ELISA

B1: COV2-2164 (antibody, V domains shown)
VH: QVQLVQSGAEVKKPGSSVKVSCKASGGTFSSYAISWVRQAPGQGLEWMGGIIPIFGTANYAQKFQGRVTITADESTSTGYMQLSSLRFEDTAVYYCARTSHYDSSGSYFEYWGQGTLVTVSS
VL: EIVLTQSPATLSLSPGERATLSCRASQSVSSYLAWYQQKPGQAPRLLIYDASNRATGIPARFSGSGSGTDFTLTISSLEPEDFAVYYCHKRSNWPPSLTFGGGTKVEIK
binding result [1]: binds

B2: CnC2t1p1_B10 (antibody, V domains shown)
VH: QVQLVQSGAEVKKPGSSVKVSCKASGGTFSSYAISWVRQAPGQGLEWMGGIIPIFGTANYAQKFQGRVTITADKSTSTAYMELSSLRSEDTAVYYCARVSGYDSSGYWGDYWGQGTLVTVSS
VL: EIVLTQSPATLSLSPGERATLSCRASQSVSSYLAWYQQKPGQAPRLLIYDASNRATGIPARFSGSGSGTDFTLTISSLEPEDFAVYYCQQRSNWPPALTFGGGTKVEIK
binding result [2]: binds

B3: COV2-2002 (antibody, V domains shown)
VH: EVQLVESGGGLVQPGGSLRLSCAASGFTFSFYWMSWVRQAPGKGLEWVANIKQDGSEKYYVDSVKGRSTISRDNAKNSLYLQMNSLRAEDTAVYYCARVGSSSWYFDYWGQGTLVTVSS
VL: not shown
binding result [2]: binds

B4: COV2-2333 (antibody, V domains shown)
VH: EVQLVESGGGLVQPGGSLRLSCAASGFTFSIYWMSWVRQAPGKGLQWVANIKQDASEKYYVDSVKGRFTISRDNAKNSLYLQMNSLRAEDTAVYYCARLGGSSWHFDYWGQGTLVTVSS
VL: SYELTQPPSVSVSPGQTASITCSGDKLGDKYSSWYQQKPGQSPVLVIYEDTKRPSGIPERFSGSNSGNTATLTISGTQAMDEADYYCQAWSSSTAVFGGGTKLTVL
binding result [2]: binds

B5: COV2-2531 (antibody, V domains shown)
VH: QVQLQESGPGLVKPSETLSLTCSVSGGSIRSYFWNWVRQPPGKGLEWIGYIYYSGSTNYKPSFKSRVTISLDTSKNQISLKLSSVTAADTAVYYCARATWLRDAFGIWGQGTMVTVSS
VL: NFMLTQPHSVSESPGKTVTISCTGNSGSIASNYVQWYQQRPGSAPTTVIYEDSQRPSGVPDRFSGSIDSSSNSASLTISGLKTEDEADYYCQSFDSGNVVFGGGTKLTVL
binding result (SARS-CoV-2 RBD): binds

B6: group 3 germline revertant (antibody, V domains shown)
VH: QVQLQESGPGLVKPSETLSLTCTVSGGSISSYYWSWIRQPPGKGLEWIGYIYYSGSTNYNPSLKSRVTISVDTSKNQFSLKLSSVTAADTAVYYCARATWLRDAFGIWGQGTMVTVSS
VL: NFMLTQPHSVSESPGKTVTISCTGSSGSIASNYVQWYQQRPGSAPTTVIYEDNQRPSGVPDRFSGSIDSSSNSASLTISGLKTEDEADYYCQSYDSSNVVFGGGTKLTVL
binding result (SARS-CoV-2 RBD): binds

B7: C126 (antibody, V domains shown)
VH: QVQLQESGPGLVKPSETLSLSCAVSGGSIGSYFWSWIRQPPGKGLEWIGYLHYSGSTNYNPSLKSRVTISVDTSKNQFSLKLSSVTAADTAVYYCARLQWLRGAFDIWGQGTMVTVSS
VL: NFMLTQPHSVSESPGKTVTISCTGSSGSIASNYVQWYQQRPGSAPTTVINEDNQRPSGVPDRFSGSIDSSSNSASLTISGLKTEDEADYYCQSYDSSNLVFGGGTKLTVL
binding result (SARS-CoV-2 RBD): binds
